Experimental findings from patent publication US20110009314A1, “Single-Chain Insulin Analogues and Pharmaceutical Formulations Thereof” (Novo Nordisk A/S, priority 2006, published 2011) are described below.

The data set can be described thus: Size exclusion chromatography (SEC, gelfiltration) migration of insulin analogues and mixtures relative to the standards X2 (monomer) and HSA. As to conditions: D 1.2 mM, Zn 0.6 mM. The data set is classed as physicochemical. (In general: SEC sorts molecules by how far they enter the pores of the column.)

Procedure: Migration of the insulin analogues and insulin analogue combinations were measured in relation to the standards mentioned below.
The test mixtures were formulated with conventional pharmaceutical adjuvants and additives. All mixtures were formulated with 16/16 mM phenol/cresol. Zinc was added as zinc acetate in various amounts. pH was 7.5.
Size exclusion chromatography (SEC) was performed essentially as described in Havelund et al. 2004 Pharmaceutical research, 21, 1498-1504. The chromatographic system was a Superose 6 HR PC 6/30 column (GE healthcare) eluted by tris-buffered isotonic saline (NaCl-140 mM, tris/HCl 10 mM, NaN3 0.01%, pH 7.5 at 37° C., injecting 1% of column volume and using a flow of 90 min per column volume and UV detection at 276 nm. The references were a stable insulin monomeric insulin X2 (AspB9, GluB27 human insulin, zinc free), a stable hexameric insulin: Co(III) insulin, albumin (HSA), and covalent albumin (formed in solution).

Take “Lys^B29(N^ε-(N-lithocholyl-γ-glutamyl)) des(B30) human insulin [Compound D]”: the “Measured SEC migration % HSA” value is 78% and the “Measured SEC migration % X2” value came out at 15%.
